# Data taken from paper PMC8238635.
# What was measured:
# Nsp8 [1] = biological target: T1, Nsp8 (SARS-CoV-2 (taxid 2697049), UniProt P0DTD1 3943-4140); assay: EMSA; split bands; details: protein: recombinant, tags: N-terminal His6-TEV, cleaved, single strand
# Nsp8 [2] = biological target: T1, Nsp8; assay: SEC-MALS-SAXS; 1:1 complex, high affinity; details: protein: recombinant; tags: N-terminal His6-TEV, cleaved; label: 32P in EMSA; none in SEC; single strand
# Nsp8 [3] = biological target: T1, Nsp8; assay: SEC-MALS-SAXS; details: protein: recombinant; tags: N-terminal His6-TEV, cleaved
# Nsp8;Nsp12 (RdRp) = Nsp8;Nsp12 (RdRp) (SARS-CoV-2 (taxid 2697049);SARS-CoV-2 …, UniProt P0DTD1;P0DTD1 3943-4140;4393-5324, |); assay: SEC-MALS-SAXS; excess RNA; low or nonexistent binding; details: protein: recombinant;recombinant, tags: N-terminal His6-TEV, cleaved;N-terminal His6-TEV, copies: 1;1
binder,measurement,setting,value
CAUGCUACGCGUAGCAUGCUACGCGUAGCAUG (ssRNA) [long ssRNA without poly-U 5' end],binding result,Nsp8 [1]; label: 32P,binds
UUUUCAUGCUACGCGUAGCAUGCUACGCGUAGCAUG (ssRNA) [long ssRNA (36 bases)],binding result,Nsp8 [2],binds
dsRNA (long ssRNA paired to short ssRNA) (dsRNA) RNA 1: UUUUCAUGCUACGCGUAGCAUGCUACGCGUAGCAUG RNA 2: CAUGCUACGCGUAGCAUGCUACGCGUAG,binding result,Nsp8 [3],binds
same,binding result,Nsp8;Nsp12 (RdRp),no binding
CAUGCUACGCGUAGCAUGCUACGCGUAG (ssRNA) [short ssRNA (28 bases)],binding result,"Nsp8 [1]; label: 32P in EMSA, none in SEC",binds
